Patent US20030064943A1

Target: human transforming growth factor β2 (TGFβ2) (human) (UniProt P61812)
Assay: cell-based or functional assay

human transforming growth factor β2 (TGFβ2) (human), sequence (P61812 303-414): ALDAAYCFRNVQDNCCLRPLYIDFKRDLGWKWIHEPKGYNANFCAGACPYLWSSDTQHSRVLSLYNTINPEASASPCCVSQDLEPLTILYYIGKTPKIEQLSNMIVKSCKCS

latency associated peptide (LAP) gave a Ki, reversal of TGFβ2-mediated inhibition of 3H-thymidine incorporation in mink lung epithelial cells of 0.5 nM.
